{
  "source": "paper PMC7027807",
  "target": "CP-His-CP MS2 dimer (bacteriophage MS2)",
  "experiment": "cryo-EM structure; large particles (~330 Å) of the same CP-His-CP sample; icosahedral T = 4 reconstruction at 6 Å, x100k and x150k datasets together; coat protein dimers of PDB 5TC1 fitted as rigid bodies",
  "data": [
    {"substance": "CP-His-CP MS2 dimer", "values": [
      {"measurement": "stoichiometry N (coat proteins)", "result": 240}
    ]}
  ]
}
